Experimental data as given in article doi:10.1101/2020.09.06.285171.

Biological target: EGFP-MYO10-MYO7B chimeric myosin (Bos taurus (Bt) | human (Hs)) (UniProt P79114)
Test: in-cell filopodial tip enrichment assay with a chimeric myosin

Chain of UniProt P79114 (P79114 whole entry, change not shown): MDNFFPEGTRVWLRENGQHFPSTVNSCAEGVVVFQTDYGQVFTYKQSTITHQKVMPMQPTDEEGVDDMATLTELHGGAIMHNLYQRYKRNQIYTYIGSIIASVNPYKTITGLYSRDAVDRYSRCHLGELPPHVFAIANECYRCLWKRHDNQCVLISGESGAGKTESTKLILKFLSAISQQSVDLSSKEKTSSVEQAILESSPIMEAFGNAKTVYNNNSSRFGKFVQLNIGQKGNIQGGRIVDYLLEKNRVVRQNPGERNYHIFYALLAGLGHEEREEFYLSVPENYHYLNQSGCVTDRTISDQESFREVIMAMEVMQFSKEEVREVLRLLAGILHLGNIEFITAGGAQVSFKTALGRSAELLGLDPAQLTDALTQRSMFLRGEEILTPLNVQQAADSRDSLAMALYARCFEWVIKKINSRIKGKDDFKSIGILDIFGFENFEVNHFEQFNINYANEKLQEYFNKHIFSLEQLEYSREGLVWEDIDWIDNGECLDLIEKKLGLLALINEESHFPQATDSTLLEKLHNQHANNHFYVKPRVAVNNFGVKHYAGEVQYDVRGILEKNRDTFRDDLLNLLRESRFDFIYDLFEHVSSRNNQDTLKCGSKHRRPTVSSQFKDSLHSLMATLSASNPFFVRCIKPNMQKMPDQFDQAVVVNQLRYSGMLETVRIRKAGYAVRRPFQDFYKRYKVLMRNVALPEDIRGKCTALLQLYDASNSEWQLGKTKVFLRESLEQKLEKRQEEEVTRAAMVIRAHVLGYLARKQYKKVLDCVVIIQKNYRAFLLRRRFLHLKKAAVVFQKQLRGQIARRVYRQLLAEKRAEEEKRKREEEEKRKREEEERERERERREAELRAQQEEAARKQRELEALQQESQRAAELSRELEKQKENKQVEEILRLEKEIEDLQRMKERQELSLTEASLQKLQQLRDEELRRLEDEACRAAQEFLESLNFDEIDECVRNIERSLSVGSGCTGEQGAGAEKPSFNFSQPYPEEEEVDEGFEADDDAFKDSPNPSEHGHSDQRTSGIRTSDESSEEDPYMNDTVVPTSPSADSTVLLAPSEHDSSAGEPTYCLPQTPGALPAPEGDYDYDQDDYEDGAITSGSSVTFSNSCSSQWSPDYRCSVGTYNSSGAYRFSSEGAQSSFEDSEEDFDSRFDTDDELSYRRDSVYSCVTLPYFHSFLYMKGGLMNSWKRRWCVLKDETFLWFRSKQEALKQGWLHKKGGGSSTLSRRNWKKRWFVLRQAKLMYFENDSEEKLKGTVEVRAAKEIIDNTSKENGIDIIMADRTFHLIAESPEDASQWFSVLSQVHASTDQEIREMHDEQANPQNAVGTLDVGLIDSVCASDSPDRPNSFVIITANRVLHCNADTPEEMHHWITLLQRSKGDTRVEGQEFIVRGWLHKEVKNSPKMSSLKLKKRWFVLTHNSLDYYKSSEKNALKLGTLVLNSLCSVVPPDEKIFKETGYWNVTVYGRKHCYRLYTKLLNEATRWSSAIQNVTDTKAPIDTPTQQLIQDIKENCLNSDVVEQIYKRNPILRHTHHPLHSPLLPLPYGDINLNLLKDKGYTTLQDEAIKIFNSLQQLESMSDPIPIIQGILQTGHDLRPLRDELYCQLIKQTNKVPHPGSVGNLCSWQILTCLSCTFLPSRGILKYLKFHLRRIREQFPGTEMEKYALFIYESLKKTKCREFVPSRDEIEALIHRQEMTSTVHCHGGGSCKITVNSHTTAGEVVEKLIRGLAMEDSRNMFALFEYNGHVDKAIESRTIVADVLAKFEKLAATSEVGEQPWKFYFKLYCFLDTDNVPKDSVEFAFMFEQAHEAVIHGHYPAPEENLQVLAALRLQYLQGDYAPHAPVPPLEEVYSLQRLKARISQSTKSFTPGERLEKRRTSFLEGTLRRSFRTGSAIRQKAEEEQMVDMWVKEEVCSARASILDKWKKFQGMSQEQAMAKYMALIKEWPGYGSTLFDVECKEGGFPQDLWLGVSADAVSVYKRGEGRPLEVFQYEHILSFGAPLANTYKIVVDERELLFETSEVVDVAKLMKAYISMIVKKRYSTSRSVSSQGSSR

| fold enrichment at filopodial tips relative to MYO10MD | Binder |
| --- | --- |
| 3 fold | mCherry-USH1C (harmonin/Usher syndrome 1C) (natural protein) MDRKVAREFRHKVDFLIENDAEKDYLYDVLRMYHQTMDVAVLVGDLKLVINEPSRLPLFDAIRPLIPLKHQVEYDQLTPRRSRKLKEVRLDRLHPEGLGLSVRGGLEFGCGLFISHLIKGGQADSVGLQVGDEIVRINGYSISSCTHEEVINLIRTKKTVSIKVRHIGLIPVKSSPDEPLTWQYVDQFVSESGGVRGSLGSPGNRENKEKKVFISLVGSRGLGCSISSGPIQKPGIFISHVKPGSLSAEVGLEIGDQIVEVNGVDFSNLDHKEAVNVLKSSRSLTISIVAAAGRELFMTDRERLAEARQRELQRQELLMQKRLAMESNKILQEQQEMERQRRKEIAQKAAEENERYRKEMEQIVEEEEKFKKQWEEDWGSKEQLLLPKTITAEVHPVPLRKPKYDQGVEPELEPADDLDGGTEEQGEQDFRKYEEGFDPYSMFTPEQIMGKDVRLLRIKKEGSLDLALEGGVDSPIGKVVVSAVYERGAAERHGGIVKGDEIMAINGKIVTDYTLAEAEAALQKAWNQGGDWIDLVVAVCPPKEYDDELTFF |
| 3 fold | mCherry-ANKS4B (ankyrin repeat and sterile a motif domain containing 4B) (natural protein) MSTRYHQAASDSYLELLKEATKRDLNLSDEDGMTPTLLAAYHGNLEALEIICSRGGDPDRCDIWGNTPLHFAASNGHAHCVSFLVNFGANIFALDNDLQTPLDAAASREQNECVALLDKAATAQNIMNPKKVTRLKEQAQKNARRQIKECERLQEKHQNKMAHTYSKEESGTLSSSKGTFSRSSPSNASAPGTFGSLSKGIKDTFKIKFKKNKDTAEQVGKEGRSGQRNVMEVFREEEEDSFSGDFKEKLQLSAEEDGSVHHESILNRPGLGSIVFRRNRISSPEDISDSKREFGFKLPSELLQRQGASEADEGAADEEGEENGLKDDLPWDDDEVEWEEDVVDATPLEVFLLSQHLEEFLPIFKREQIDLEALLLCSDEDLQSIQMQLGPRKKVLNAINRRKQVLQQPGQLVDTSL |
